T1: recombinant murine CD300LB overexpressed on BaF/3 cells (mouse, UniProt Q3U497 18-209)
T1 construct: Cells carry pMXs-Myc-tagged muCD300LB together with FLAG-tagged DAP12; also called muCD300LB; BaF/3 overexpressing muCD300LB
T1 sequence: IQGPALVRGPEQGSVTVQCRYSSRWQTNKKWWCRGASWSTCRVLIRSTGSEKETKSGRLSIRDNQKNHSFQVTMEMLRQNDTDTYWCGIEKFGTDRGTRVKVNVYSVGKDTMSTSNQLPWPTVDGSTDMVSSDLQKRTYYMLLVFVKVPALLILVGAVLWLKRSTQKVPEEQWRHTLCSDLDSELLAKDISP

T2: murine CD300LB stably expressed on Jurkat cells (mouse, UniProt Q3U497 18-209)
T2 construct: also called muCD300LB; mouse CD300LB
T2 sequence: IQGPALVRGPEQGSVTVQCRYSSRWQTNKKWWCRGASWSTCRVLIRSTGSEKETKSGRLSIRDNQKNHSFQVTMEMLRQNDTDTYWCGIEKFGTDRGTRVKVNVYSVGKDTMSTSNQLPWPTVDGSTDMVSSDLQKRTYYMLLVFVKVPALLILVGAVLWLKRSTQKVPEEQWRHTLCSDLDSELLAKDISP

T3: murine CD300E-Fc (mouse)
T3 construct: mouse IgG2a-Fc fusion (R&D Systems); the entry is the whole fusion chain; also called mCD300E; Mouse CD300E-Fc
T3 chain: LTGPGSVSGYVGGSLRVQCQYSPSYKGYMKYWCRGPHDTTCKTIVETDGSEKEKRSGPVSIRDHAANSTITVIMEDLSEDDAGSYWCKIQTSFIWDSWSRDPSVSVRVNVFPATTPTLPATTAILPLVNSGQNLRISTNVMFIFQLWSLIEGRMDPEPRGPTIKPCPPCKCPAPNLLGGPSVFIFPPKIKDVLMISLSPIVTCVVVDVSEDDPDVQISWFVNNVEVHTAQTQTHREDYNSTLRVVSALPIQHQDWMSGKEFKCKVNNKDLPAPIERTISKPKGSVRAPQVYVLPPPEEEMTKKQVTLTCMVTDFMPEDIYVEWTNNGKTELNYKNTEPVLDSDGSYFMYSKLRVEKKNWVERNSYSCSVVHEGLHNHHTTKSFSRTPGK


Columns and labels:
[1] = target: T1, recombinant murine CD300LB …; assay: flow cytometry, BaF/3 cells overexpressing muCD300LB
Protocol: Purified anti-CD300LB antibodies of the present disclosure were evaluated for their binding affinity to either Jurkat cells overexpressing recombinant huCD300LB or BaF/3 cells overexpressing recombinant muCD300LB. Binding of anti-CD300LB antibodies to the cells was determined as follows. Cells were harvested, washed, and labeled with propidium iodide for viability discrimination. After washing the cells with PBS, 1×10⁵ cells were aliquoted per well in 96-well U-bottom plates and incubated with 100 μL of purified anti-CD300LB antibody at various concentrations in FACS buffer (PBS+2% FBS). After this primary incubation, the supernatant was removed via centrifugation, the cells washed twice with 150 μL of ice-cold FACS buffer, and then incubated with the appropriate secondary antibody on ice for 30 minutes. Following the secondary antibody incubation, the cells were again washed twice with ice-cold FACS buffer and resuspended in a final volume of 200 L FACS buffer. Flow cytometry analysis was then performed using the FACSCanto system (BD Biosciences).

[2] = target: T2, murine CD300LB stably expressed on …; assay: flow cytometry, stable Jurkat cells, 10 ug/mL, isotype subtracted
Protocol: Purified anti-CD300LB antibodies of the present disclosure were analyzed for cross-reactivity to other murine CD300 family members stably expressed in Jurkat cells (generation of which is described above). Cells were counted and labeled with 200 nM CFSE, 500 nM VioBlue, or a combination of the two to discriminate between muCD300LB, Parental cells, CD300F, and the other CD300 family members. Cells were washed thoroughly with PBS containing 2% fetal bovine serum then resuspended at a total of 240,000 cells per well. Purified antibodies at 10 μg/mL were added and incubated for one hour before the cells were washed twice again and stained with an APC-labeled anti-mouse secondary. Cells were then analyzed using a BD FACSCanto II. Antibodies were analyzed for specific binding to muCD300LB by FlowJo software by gating on live cells, then the APC gMFI calculated for each labeled population by subtracting the gMFI of the isotype control. The gMFI results of the analysis are presented below in Table 4.

[3] = target: T3, murine CD300E-Fc; assay: SPR (Carterra LSA), antibody immobilised
Text: In addition to the screening of antibodies for cross-reactivity by FACS analysis, surface plasmon resonance (SPR) analysis was used to determine the binding of antibodies to recombinant huCD300 and muCD300 family members (orthologs) conjugated to an Fc (human CD300A-Fc SEQ ID NO:144; human CD300LB-Fc SEQ ID NO:145; human CD300C-Fc SEQ ID NO: 146; human CD300D-Fc SEQ ID NO: 147; human CD300E-Fc SEQ ID NO: 148; human CD300F-Fc SEQ ID NO: 149; murine CD300A-Fc SEQ ID NO: 150; murine CD300LB-Fc SEQ ID NO:151; murine CD300C-Fc SEQ ID NO: 152; murine CD300D-Fc SEQ ID NO: 153, and murine CD300E-Fc SEQ ID NO: 154).
(§1) Binding of mouse anti-CD300LB IgG1 antibodies of the present disclosure to human and murine CD300 orthologs were evaluated by surface plasmon resonance (SPR) using a Carterra LSA instrument (Carterra, Salt Lake City, UT). […] A HC200M sensor chip (Carterra) was activated using the single channel flow cell with a 7-minute injection of a 1:1:1 mixture of 100 mM MES pH 5.5, 100 mM sulfo-NHS, 400 mM EDC (all reconstituted in MES pH 5.5; 100 μL of each mixed in vial immediately before running assay). After switching to the multi-channel array flow cell, the antibodies were injected over the activated chip in a 96-spot array for 10 minutes. The remaining unconjugated active groups on the chip were then blocked by injecting 1M Ethanolamine pH 8.5 (Carterra) for 7 minutes using the single channel flow cell. After priming with running buffer (HBS-TE, Carterra) with 0.5 mg/ml BSA (Sigma), the immobilized anti-CD300LB antibodies were tested for their ability to bind human and mouse recombinant CD300LB extracellular domains. Human CD300 family members and mouse CD300A were hIgG1-Fc fusions, while mouse CD300LB, mouse CD300C, mouse CD300D, and mouse CD300E were mouse IgG2a-Fc fusions (R&D Systems). Binding was assessed by injecting each analyte over the entire antibody array using the single channel flow cell. CD300 analytes were diluted to 300 nM or 600 nM in running buffer and injected in series without regeneration. Two or three buffer blanks were run between each mouse or human ortholog, respectively. Data were processed and analyzed using NextGenKIT high-throughput kinetics analysis software (Carterra).

[4] = target: T4, murine CD300A-Fc (mouse); assay: SPR (Carterra LSA), antibody immobilised, Fc fusion at 300 or 600 nM
T4 construct: hIgG1-Fc fusion; the entry is the whole fusion chain; also called mCD300A; Mouse CD300A-Fc
Protocol: as §1
Results of anti-CD300LB antibody binding to murine CD300 family members is provided below in Table 8.

T4 sequence (chain, as listed by the source limits assumed): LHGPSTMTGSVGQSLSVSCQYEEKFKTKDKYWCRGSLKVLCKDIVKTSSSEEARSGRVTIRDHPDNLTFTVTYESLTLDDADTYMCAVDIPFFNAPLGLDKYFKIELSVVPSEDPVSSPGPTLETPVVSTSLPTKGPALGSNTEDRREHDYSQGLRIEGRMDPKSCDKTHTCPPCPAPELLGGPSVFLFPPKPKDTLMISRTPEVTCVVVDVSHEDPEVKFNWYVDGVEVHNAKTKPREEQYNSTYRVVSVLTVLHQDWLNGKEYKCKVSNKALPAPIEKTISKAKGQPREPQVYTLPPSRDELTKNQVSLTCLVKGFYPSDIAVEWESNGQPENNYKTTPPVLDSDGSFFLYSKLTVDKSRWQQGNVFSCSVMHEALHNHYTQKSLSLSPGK

Binder	gMFI [1] [gMFI]	gMFI [2] [gMFI]	binding result [3]	SPR binding (control subtracted) [4]
anti-CD300LB antibody CD-10 (antibody, V domains shown) VH: QVQLQQSGPELVRPGVSVKISCKGSGYTFTDYAMHWVKQSHVRSREWIGVIGTYNGHTNYNQKFKGKATMTVDKSSSTAYLELARLTSEDSAIYYCARSGSYYYSMDYWGQGTSVTVSS VL: QIVLTQSPAIMSASPGEKVTMTCSASSSVNYMHWYQQKSGTSPKRWIYDTSKLSSGVPARFSGSGSGTSYSLTISTMEAEDAATYYCQQWSSNPPMTFGGGTKLEIK	6260	1610	no binding (tested: 300 nM or 600 nM)	-2.5
anti-CD300LB antibody CD-11 (antibody, V domains shown) VH: QIQLVQSGPEVKKPGETVKISCKASGYTLTDYSMHWVMQTPGTGLKWMAWMNTETGEPTYADDFKGRFAFSLETSAGTAYLQIDNLKNEDTATYFCATYGKSYGMKYWGQGTSVTVSS VL: DIVLTQSPPSLAVSLGQRATISCRATKSVSPYLHWYQQTPGQPPKLLIYLASNLDSGVPARFSGSGSGTDFTLNIHPVEEEDAATYYCQHNKELPPTFGGGTRLEIK	10900	4660	no binding (tested: 300 nM or 600 nM)	-2.1
anti-CD300LB antibody CD-12 (antibody, V domains shown) VH: QIQLVQSGPELKKPGETVKISCKASGYTFTDYSMHWVRQAPGKGLKWMAWINTETGEATHADDFKGRFDFSLDTSASTAYLQIKNLKNEDTGIYFCVCYGSSYGMDYWGQGTSVTVSS VL: DIVLTQSPASLPVSLGQRATISCRASKSVRTSGASYMHWYQQKPGQPPKLLIYLASNLKSGVPTRFSGSGSGTDFTLNIHPVEEEDAATYYCQHNREVPPTFGGGTKLEIK	9800	4210	no binding (tested: 300 nM or 600 nM)	4.2
anti-CD300LB antibody CD-13 (antibody, V domains shown) VH: QIQLVQSGPELKKPGETVKISCKASGYTFTDYSMHWVKQAPGKGFKWMAWINTETGAPTHADDFRGRFAFSLETSASTAFLQISNLKTEDTATYFCVTFGKSYGMNYWGQGTSVTVSS VL: DIVLTQSPASLSVSLGQRATISCRASKSVGSSGSSYLHWYQQKPGQPPKLLIYLASNLESGVPARFSGSGSGTEFTLNIHPVEEEDAATYYCQHNAEVPPTFGGGTKLEIK	22100	7600	no binding (tested: 300 nM or 600 nM)	4.4

Further lines, results first:

gMFI [1] [gMFI]	gMFI [2] [gMFI]	binding result [3]	SPR binding (control subtracted) [4]	Binder
–	2520	no binding (tested: 300 nM or 600 nM)	2.9	anti-CD300LB antibody CD-18 (antibody, V domains shown) VH: DVQLQESGPDLVKPSQSLSLTCTVTGYSITSGYSWHWIRQFPDNKLEWMGYILSRGDTNFNPSLKSRISITRSTSNNQFFLHFNSVTTEDTATYYCARDFFDYWGQGTTLTVSS VL: DVLMTQTPLSLPVSLGDQASISCRSSQSIVHSNGNTYLEWYLQKPGQSPKLLIYKVSDRFSGVPDRFSGSGSGTDFTLKISRVEAEDLGVYFCFQGSHVPYTFGGGTKLEIK
19400	9550	no binding (tested: 300 nM or 600 nM)	2.7	anti-CD300LB antibody CD-14 (antibody, V domains shown) VH: QIQLVQSGPELKKPGETVKISCKASGYTFTDYSLHWVKQTPEKNLKWMAWINTETGAPTYADDFKGRFAFSLETSSNTAYLLINNLKNEDTATYFCALTMVNYWGQGTTLTVSS VL: DIVMTQSQKFMSTSVGDRVSVTCKASQNVGIRVAWHQQKPGQSPKTLIYSTSYRYSGVPDRFTGSGSGTEFILTISNVQSEDLAEYFCQQYNSYPYTFGGGTKLEIK
8970	4570	no binding (tested: 300 nM or 600 nM)	-1.9	anti-CD300LB antibody CD-16 (antibody, V domains shown) VH: QIQLVQSGPELKKPGETVKISCKASGYTFTDYSMHWVKQAPGKGLKWMAWINTETGEPTYADDFRGRFAFSLETSGRTAYLEINNLRNEDTATYFCVTYGSSYGMAYWGQGTSVTVSS VL: DIVLTQSPASLAVSLGQRATISCRASKSVSRSGYSYLHWYQQKPGQPPKLLIYLASKLESGVPARFSGSGSGTDFTLNIHPVEAEDAATYYCQHNREIPPTFGGGTKLEIK
–	7920	no binding (tested: 300 nM or 600 nM)	2.9	anti-CD300LB antibody CD-17 (antibody, V domains shown) VH: QIQLVQSGPELKKPGETVKISCKASGYTLTDYSMHWVKQAPGKGLKWMGWINTETGEPRYGDDFKGRFAFSLETSASSAYLQINNLKNDDTATYFCATYGRSYGMDFWGQGTSVTVSS VL: DIVLTQSPASLAVSLGQRATISCRASKSVSPSGHSYMHWYQQKPGQPPKLLIYLASNLKSGVPARFSGSGSGTDFTLNIHPVEEGDAATYYCQHNRELPPTFGGGSKLEIK
8330	4140	no binding (tested: 300 nM or 600 nM)	7.1	anti-CD300LB antibody CD-15 (antibody, V domains shown) VH: QIQLVQSGPELKKPGETVKISCQVSGYTFTDYSMHWLKQAPGKGLKWMAWINTETGESTYTDEFKGRFVFSLETSVRTAYLKINNLKNEDTATYFCGTYGSSYGMAYWGQGTSVTVSS VL: DIVLTQSPASLPVSLGQRATISCRASKSVSTSGSSYLHWYQQKPGQPPKLLIYLASKLESGVPARFRGSGSGTDFTLNIHPVEEEDAATYYCQHNREVPPTFGGGTKLEIK

Reference: patent US20240254227A1 (Alector, published 2024)
